Experiment: yeast display, Sf9 membrane polyspecificity reagent, FACS + sequencing; frameworks hold sequencing errors
How it was run: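 Polyreactivity labels are assigned by the sorting gate from which each nanobody was recovered. The gates were low and high (top ~1%), set on anti-HA fluorescence for expression and streptavidin fluorescence for reagent binding. Before sorting, galactose-induced (36–48 hours) yeast display cells were stained for 1 hour at 4 °C with 10% biotinylated, detergent-solubilized Sf9 membrane reagent.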

| Sequence | polyreactivity (PSR sort gate) |
| --- | --- |
| QVQLVESGGGLVQAGGSLRLSCADSARTFNWNAMGWYRQAHGKERELVATISRRGGSTYYADSVKGRFTISRDNAKNTVYLQMNSLKPEDTAVYDCNTAGRYGYDYWGQGTQVTVSS | high polyreactivity |
| QVQLVESGGGLVQAGGSLRLSCADSGFIFGYYAMGWYRQAPGKERELVAAINKNGGSTYYADSVKGRFTISRDNAKNTVYLQMNSLKPEDTAVYYCAARARGYAWTFDYWGQGTQVTVSS | high polyreactivity |
| QVQLVESGGGLVQAGGSLRLSCADSGFIIGRYTMGWYRQAPGKERELVAAISFRGGSTYYADSVKGRFTISRDNAKNTVYLQMNCLKPEDTAVYYCAAYSSGPYGFDYWGQGTQVTVSS | high polyreactivity |
| QVQLVESGGGLVQAGGSLRLSCADSGFTCYYYTMGWNRPAPWKGRELVAAISWSGGSTYYADSVKGRFTISRDNAKNTVYLQMNSLKPEDPAVYYCNKAYPGRTYDYWGQGSQVTVSS | high polyreactivity |
| QVQLVESGGGLVQAGGSLRLSCADSGFTFDWYAMGWYRQAPGKERELVAAISGRGGSTYYADSVKGRFTISRDNAKNTVYLQMNSLKPEDTAVYDCNAVYGAYRYEYWGQGTQVTVSS | high polyreactivity |
| QVQLVESGGGLVQAGGSLRLSCADSGFTFYRYARGWYRQAPGKERELVADITSGGSTNYADSVKGRFTISRDNAKNTVYLQMNSLKPEDTAVYYCNADRWYGSVYRYGYWGQGTQVTVSS | high polyreactivity |
| QVQLVESGGGLVQAGGSLRLSCADSGFTLNAMGWYRHAPGKERELVAAITTGGRTYYADSVKGRFTISRDNAKNTVYLQMNSLKPEDTAVYYCGAHTYYYPVGFNYWGQGTQVTVSS | low polyreactivity |
| QVQLVESGGGLVQAGGSLRLSCADSGHIFFYYTMGWYRQAPGKEREMVAGITIGGSTNYADSVKVRFTISRDNAKNTVYLQMNSLKPEDTAVYYCNVVKYVYIYSYSEYYYWGQGTQVTVSS | low polyreactivity |
| QVQLVESGGGLVQAGGSLRLSCADSGITFVTYAMGWYRQAPGKERELVAAISRSGGRTYYADYVKGRFTISRENAKNTVYLQMNSLKPEDTAVYYCAAERKNKYDYWVQGTQVTVSS | high polyreactivity |
| QVQLVESGGGLVQAGGSLRLSCADSGITLYYNAMGWYRQAPGKERELVAAISWSGDSTYYADSVKGRFTISRDNAKNTVYLQMNSLKPEDTAVYYCAADRYTYYHYAWYEYWGQGTQVTVSS | low polyreactivity |
| QVQLVESGGGLVQAGGSLRLSCADSGLIFEDYAMGWYRQAPGKERELVAAIDWGGGSTYYADSVKGRFTISRDNAKNTVYLQMNSLKPEDTAVYYCAADSYFSYRYNYWGQGTQVTVSS | low polyreactivity |
| QVQLVESGGGLVQAGGSLRLSCADSGLIFQYYVMVWYRQAQGKERELVAAISARGGGTYYADSVKGRFTISRDNAKNTVYLPMNSLKPEVTAVYYCAAHQVYAGPGYDYWGQGTQVTVSS | high polyreactivity |
| QVQLVESGGGLVQAGGSLRLSCADSGLIFRHYAMGWYRQAPGKERELVASISYRGGSTYYADSVKGRFTISRDNPKNTVYLQMNSLKPEDTAVDYCAADTYYPTYWSVTYGYDYWGQGTQVTVSS | low polyreactivity |
| QVQLVESGGGLVQAGGSLRLSCADSGLIFTQYAMGWYIQAPGKEREFVAAITWNGGRTYYADSVKGRFTISRDNAKNTVYLQMNSLKPEDTAVYYCATRNTRFHLDYWGQGTQVTVSS | high polyreactivity |
| QVQLVESGGGLVQAGGSLRLSCADSGLTFRRYAMGWYRQAPGKERELVAAITRGGSTNYADSVKGRFTISRVNAKNTVYLQMNSLKPEDTAVYFCAAVYSTRSTSYWMDYWGQGTQVTVSS | high polyreactivity |
| QVQLVESGGGLVQAGGSLRLSCADSGRIFASYAMGWYRQAPRKERELVAAISWRGGTTYYADSVKGRFTSSRDNAKNTVYLQMNSLKPEDTAVYYCATTSSLGSWGYDYWGQGTQVTVSS | high polyreactivity |
| QVQLVESGGGLVQAGGSLRLSCADSGRIFRYYAMGWYRQAPGKERELVAAITWSGGTTIYADSVKGRFSISRDNAKNTVYLQMNSLKPEDTAVYYCNAARSRGANLVPPYRLYYWGQGTQVTVSS | low polyreactivity |
| QVQLVESGGGLVQAGGSLRLSCADSGRIYGIYAMGWYRQAPGKERELVAAITNIGGRTYYADSVKGRFTISRDNAKNTVYLQMNSLKPEDTAVYYCAKRWRRRFVDVWSLYDYWGQGTQVTVSS | low polyreactivity |
| QVQLVESGGGLVQAGGSLRLSCADSGRTFGPNAMGWYRQAPGKERELVAAITGGGSTYYADSVKGRFTISRDNAKNTVYLQMNSLKPEDTAVYYCAAVWTYWYYGDDYWGQGTQVTVSS | low polyreactivity |
| QVQLVESGGGLVQAGGSLRLSCADSGRTFVGNAMGWYRQAPGKGWEFVAAISRSGGSTNYADSVKGRFTISRDNAKNTVYLQMKSLKPEDTAVYYCAARDRFGGIRRYIYWGQGTQVTVSS | high polyreactivity |
| QVQLVESGGGLVQAGGSLRLSCADSGRTFYHYAMGWYRQAPGKERELVATITSSGGNTYYADSVKGRFTISRDNAKNTVYLQINSLKPEDTAVYYCAADWFVYQYSFGSSEYYYWGQGTQVTVSS | low polyreactivity |
| QVQLVESGGGLVQAGGSLRLSCADSGRTQWSYAIGWYRQAPGKERELVATISYSGGSTYYADSVKGRFTISRDNAKNTVYLQMNSLKPEATAVYYCNAVARWYVLQVYEYDYWGEGTQVTVSS | low polyreactivity |

| Sequence | polyreactivity (PSR sort gate) |
| --- | --- |
| QVQLVESGGGLVQAGGSLRLSCADSGRTSYYYVMGWYRQAPGKERELVAAIRSRGGSTYYADSVKGRFTISRDNAKNTVYLQMNSLKPEDTAVYYCAARYGFWSYDFGYWGLGTQVTVSS | high polyreactivity |
| QVQLVESGGGLVQAGGSLRLSCADSGSIFIANAMGWYRPAPGKERELVAAIDSGGSTNYADSVKGRFTSSRDNAKNTVYLQMNSLKPEDTAVYYCAADGTLTAPGGDYWGQGTQVTVSS | high polyreactivity |
| QVQLVESGGGLVQAGGSLRLSCADSGSIFKYYAMGWYRQAPGKERELDASISWSGGTTYYADSVKGRFTISRDNAKNTVYLQMNSLKPEDTAVYYCNARWWVRYSNKYDYWGQGTQVTVSS | high polyreactivity |
| QVQLVESGGGLVQAGGSLRLSCADSGSIFRRNAMGWYRQAPGKERELVAGIRGSGGSTYYADSVKGRFTISRDNAKNTVYLQMNSLKPEDTAVYYCAARRSYYHGSYDYWGQGTQVTVSS | high polyreactivity |
| QVQLVESGGGLVQAGGSLRLSCADSGSIFTYTMGWYRQAPGKERELVAVISRSGGRTYYADSVKGRFTISRDNAKNTVYLQMNSLKPEDTAVYYCATDGHNGYYGRYDYWGQGTQVTVSS | high polyreactivity |
| QVQLVESGGGLVQAGGSLRLSCADSGSIGYYAMGWYRQAPGKERELVAVISRSGTGTYYADSVKGRFTISRDNANNTVYLQMNSLKPEDTAVYYCNAETYTYRYENDYWGQGTQVTVSS | high polyreactivity |
| QVQLVESGGGLVQAGGSLRLSCADSGSIIYYAMGWNRQAPGKEREFVAAITKSGGSTYYADSVKGRFTISRDNAKNTVYLQMNSLKPEDTAVYYCAARGTWAGFYYWGQGTQVTVSS | high polyreactivity |
| QVQLVESGGGLVQAGGSLRLSCADSGSIVLVNAMGWSRQAPGKEREMVAAITYGGDSTYYADSVKGRFTISRDNAKNSVYFQINSLKREDTAVYYFAADAWVGWHDEYDYWGQGTQVTVSS | low polyreactivity |
| QVQLVESGGGLVQAGGSLRLSCADSGSIYHNYDMGWYRQAPGKEKEFVADISRGGDTIYADSVKGRFSISRDNAKNTVYLQMNSLKPEDTAVYYCNATYWILDSPWWRETFDYWGQGTQVTVSS | low polyreactivity |
| QVQLVESGGGLVQAGGSLRLSCADSGSTFGYYAMGWYRQAPGKERELVAGISSGGTTKYADSVKGRFTISRDNAKNTVYLQMNSLKPVDTAVYYCAARFRRTRVTYYYWGQGTQVTVSS | high polyreactivity |
| QVQLVESGGGLVQAGGSLRLSCADSGSTFKGYTMGWYRQAPGKERELVAAIRSRSGNTYYADSVKGRFTISRDNAKNHVYLLMNSLKPEETAVYYCAAVQPYVDYDSWGQGTQVTVSS | high polyreactivity |
| QVQLVESGGGLVQAGGSLRLSCADSGSTFKYYAMGWYRQAPGKEREFVASINWSGVSTYYADSVKGRFTISRDNPKNTVYLQMNSLKPEDTSVYYCAARVRGKYDYWGQGTQVTVSS | high polyreactivity |
| QVQLVESGGGLVQAGGSLRLSCADSGSTFRIFAMGWYRQAPGKERELVAAITGGGTHYADSVKGRFTISRDNAKNTVYLQMNSLTPEDTAVYYCAANRSKLYRYAMGYWGQGTQVTVSS | high polyreactivity |
| QVQLVESGGGLVQAGGSLRLSCADSGSTFSYNAMGWYRQAPGKERELVATITYSGTSTHYADSVKGRFTISRDNAKNTVYLQMNSLKPEDTAVYYCNAYSKGWGLPDDYWGQGTLVTVSS | low polyreactivity |
| QVQLVESGGGLVQAGGSLRLSCADSGSTFWYYVMGWYRQAPGKERELVAVINTRGGSTYYADSVKGRFTISRDNAKNTVYLQMNSLKPEDTAVYYCNARKVKRGKYNYWGQGTQVTVSS | high polyreactivity |
| QVQLVESGGGLVQAGGSLRLSCADSGSTFYPYAMGWYRQAPGKEREFVAAISRGGTTTYYADSVKGRFTISRDNAKNTVYLQMNSLKPEDTAVYYCAARYVSVYRWTYDYWGQGTQVTVSS | high polyreactivity |
| QVQLVESGGGLVQAGGSLRLSCADSGSTFYYYAMGWYRQAPGKERELVAAISTSGGSTYYADSVKGRFTISRDNAKNTVYFQMNSLKPEDTAVYYCAARYRRGMGYWGQGTQVTVSS | high polyreactivity |
| QVQLVESGGGLVQAGGSLRLSCADSGSTIYPYAMGWYRQAPGKERELVAAINRSGGRTYYADSVKGRFTISRDNAKNTVYLQMISLKPEDTAVYYCAARVRSRNSYDYWGQGTQVTVSS | low polyreactivity |
| QVQLVESGGGLVQAGGSLRLSCADSGSTLIGNAMGWYRQAPGKERELVAAISSGGRTYYADSVKGRFTISRDNAKNTVYLQMNSLKPEDTAVYYCAADTVGTNVVSPELDYWGQGTQVTVSS | low polyreactivity |
| QVQLVESGGGLVQAGGSLRLSCADSGSTYGGYAMGWYRQAPGKERELVAAISQSGGRTYYADSVKGRFTISRDNAKITVYFQMNSLKPEDTAVYYCAAYRTGYGRFTLDYWGQGSQVTVSS | high polyreactivity |
| QVQLVESGGGLVQAGGSLRLSCADSGYTFLDYAMGWYRQAPGKERELVAAINSGGSTYYADSVKGRFTISRDNAKNTVYLQMNSLKPEDTAVYYCAREDYVSYRLLYSLFDYWGQGTQVTVSS | low polyreactivity |

From the nanobody polyreactivity screen of Harvey et al. (2022)
